Ends that are not written are not given here. * marks the point of attachment. Biotin = O=C1N[C@H]2[C@H](CS[C@H]2CCCCC(=O)*)N1
What was measured:
Test in all cases: A/G assays
[1] = target: T1, GST-KIAA0303 PDZ domain fusion protein (Homo sapiens (Human), UniProt O15021 1138-1229)
T1 construct: also called K303; not shown: glutathione S-transferase (GST) encoded by pGEX-3X
T1 sequence: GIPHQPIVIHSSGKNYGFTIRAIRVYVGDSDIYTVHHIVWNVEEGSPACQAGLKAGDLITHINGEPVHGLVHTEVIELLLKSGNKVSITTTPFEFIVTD

[2] = target: T2, GST-AF6 PDZ domain fusion protein (Homo sapiens (Human), UniProt P55196 1001-1093)
T2 construct: also called af-6 protein; not shown: glutathione S-transferase (GST) encoded by pGEX-3X
T2 sequence: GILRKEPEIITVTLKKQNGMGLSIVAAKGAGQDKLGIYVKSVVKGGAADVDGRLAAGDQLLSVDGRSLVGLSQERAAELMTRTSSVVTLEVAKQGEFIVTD

[3] = target: T3, GST-MPP2 PDZ domain fusion protein
T3 construct: also called maguk p55 subfamily member 2 (DLG2); MMP2; not shown: glutathione S-transferase (GST) encoded by pGEX-3X
T3 chain: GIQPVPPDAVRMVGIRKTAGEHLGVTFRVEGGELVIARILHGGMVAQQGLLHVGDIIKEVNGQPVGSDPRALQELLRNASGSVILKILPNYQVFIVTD

[4] = target: T4, GST-TAX2 PDZ domain fusion protein (human, UniProt O14908 129-216)
T4 construct: not shown: glutathione S-transferase (GST) encoded by pGEX-3X
T4 chain: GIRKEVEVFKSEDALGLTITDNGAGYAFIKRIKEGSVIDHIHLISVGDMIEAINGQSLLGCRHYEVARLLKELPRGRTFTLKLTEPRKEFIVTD

[5] = target: T5, GST-KIAA0316 PDZ domain fusion protein (Homo sapiens (Human), UniProt Q14CM0 72-159)
T5 construct: also called K316; not shown: glutathione S-transferase (GST) encoded by pGEX-3X
T5 sequence (Q14CM0 other isoform, or with tags, fused parts or gaps): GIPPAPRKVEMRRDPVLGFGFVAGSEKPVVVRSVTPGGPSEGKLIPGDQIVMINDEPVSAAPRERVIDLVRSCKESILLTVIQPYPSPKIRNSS

[6] = target: T6, GST-prIL16 PDZ domains 1-2 fusion protein (Homo sapiens (Human), UniProt Q14005 1110-1325)
T6 construct: also called putative interleukin 16 precursor; not shown: glutathione S-transferase (GST) encoded by pGEX-3X
T6 sequence: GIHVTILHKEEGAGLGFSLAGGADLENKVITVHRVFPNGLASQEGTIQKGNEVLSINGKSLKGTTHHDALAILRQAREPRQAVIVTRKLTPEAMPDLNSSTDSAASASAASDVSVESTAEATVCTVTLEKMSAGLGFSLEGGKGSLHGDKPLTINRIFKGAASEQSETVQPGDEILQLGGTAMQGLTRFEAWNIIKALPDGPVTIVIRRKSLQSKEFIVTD

[7] = target: T7, GST-41.8 kD (hypothetical 41.8 kD protein) PDZ domain fusion protein (Mus musculus (Mouse), UniProt Q9EQZ7 682-763)
T7 construct: not shown: glutathione S-transferase (GST) encoded by pGEX-3X
T7 sequence: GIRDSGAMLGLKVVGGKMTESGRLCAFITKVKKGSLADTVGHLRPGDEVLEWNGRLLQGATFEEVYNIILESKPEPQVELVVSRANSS

[8] = target: T8, GST-MINT3 PDZ domain fusion protein (human)
T8 construct: also called human MINT3; not shown: glutathione S-transferase (GST) encoded by pGEX-3X
T8 chain: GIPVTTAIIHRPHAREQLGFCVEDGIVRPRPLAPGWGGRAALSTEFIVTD

[9] = target: T9, GST-PTN-4 PDZ domain fusion protein (Homo sapiens (Human), UniProt P29074 517-605)
T9 construct: also called protein-tyrosine phosphatase meg1; not shown: glutathione S-transferase (GST) encoded by pGEX-3X
T9 sequence: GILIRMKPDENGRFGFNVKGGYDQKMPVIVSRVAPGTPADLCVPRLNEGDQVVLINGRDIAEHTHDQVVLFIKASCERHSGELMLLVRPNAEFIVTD

[10] = target: T10, GST-MPP1 PDZ domain fusion protein (Homo sapiens (Human), UniProt Q00013 67-152)
T10 construct: also called 55 Kd erythrocyte membrane protein; not shown: glutathione S-transferase (GST) encoded by pGEX-3X
T10 sequence: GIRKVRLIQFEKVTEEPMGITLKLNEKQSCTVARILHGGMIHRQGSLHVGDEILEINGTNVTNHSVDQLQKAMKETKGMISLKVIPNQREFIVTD

[11] = target: T11, GST-TAX40 PDZ domain fusion protein (human, UniProt Q6B4M5 150-251 (rat entry))
T11 construct: not shown: glutathione S-transferase (GST) encoded by pGEX-3X
T11 sequence: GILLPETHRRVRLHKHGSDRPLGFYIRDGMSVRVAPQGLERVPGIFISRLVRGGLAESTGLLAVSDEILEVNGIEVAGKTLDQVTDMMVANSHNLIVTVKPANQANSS

[12] = target: T12, GST-TAX43 PDZ domain fusion protein (human, UniProt Q13884 109-180)
T12 construct: not shown: glutathione S-transferase (GST) encoded by pGEX-3X
T12 sequence: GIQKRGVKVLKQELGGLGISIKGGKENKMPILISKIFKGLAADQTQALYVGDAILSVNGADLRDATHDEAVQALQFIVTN

[13] = target: T13, GST-TAX33 PDZ domain fusion protein (Homo sapiens (Human), UniProt O14910 103-194)
T13 construct: not shown: glutathione S-transferase (GST) encoded by pGEX-3X
T13 sequence: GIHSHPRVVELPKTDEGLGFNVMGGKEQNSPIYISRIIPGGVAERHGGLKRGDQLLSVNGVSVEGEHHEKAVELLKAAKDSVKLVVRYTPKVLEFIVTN

[14] = target: T14, GST-LIMK2 PDZ domain fusion protein (human, UniProt P53671 147-237)
T14 construct: also called human LIM domain kinase 2; not shown: glutathione S-transferase (GST) encoded by pGEX-3X
T14 sequence: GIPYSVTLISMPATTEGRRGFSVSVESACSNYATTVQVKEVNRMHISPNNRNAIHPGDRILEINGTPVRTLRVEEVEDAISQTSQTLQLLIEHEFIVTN

[15] = target: T15, GST-LIM (Human LIM protein) PDZ domain fusion protein (human, UniProt Q96HC4 2-85)
T15 construct: not shown: glutathione S-transferase (GST) encoded by pGEX-3X
T15 sequence: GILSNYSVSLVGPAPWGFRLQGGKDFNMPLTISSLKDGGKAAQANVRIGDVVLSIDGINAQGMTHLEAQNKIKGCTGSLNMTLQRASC

[16] = target: T16, GST-TIAM1 PDZ domain fusion protein (Homo sapiens (Human), UniProt Q13009 845-932)
T16 construct: also called T-lymphoma invasion and metastasis inducing protein 1; not shown: glutathione S-transferase (GST) encoded by pGEX-3X
T16 sequence (Q13009 other isoform, or with tags, fused parts or gaps): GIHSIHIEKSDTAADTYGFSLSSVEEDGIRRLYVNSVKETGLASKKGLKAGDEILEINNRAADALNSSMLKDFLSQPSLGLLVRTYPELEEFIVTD

Measured: binding result

B1: CD34 C-terminal peptide AA7L (peptide)
peptide: Biotin-QATSRNGHSARQHVVADTEL
no binding: all assays above

B2: CD148 peptide AA55L (ending KTIA) (peptide)
peptide: Biotin-TIYENLAPVTTFGKTIA
no binding: all assays above

Source: US6942981
